Reference: the supplement of paper PMC10065799, “High-throughput profiling of sequence recognition by tyrosine kinases and SH2 domains using bacterial peptide display” (eLife, 2023)

The sequences below were run against Fyn (UniProt P06241) (assay: phosphorylation enrichment, bacterial display (enrichment ratio); higher = better substrate or ligand; peptides without Tyr show the background).
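Note: 11-residue human phosphosite peptides and single-mutation variants displayed on the E. coli surface, counted by deep sequencing, each peptide's frequency after selection divided by its frequency in the unselected input library; frequency after pTyr selection over input frequency; kinase dosed for 20-30% of maximal phosphorylation in three min.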

Chain of Fyn (P06241 whole entry, looked up): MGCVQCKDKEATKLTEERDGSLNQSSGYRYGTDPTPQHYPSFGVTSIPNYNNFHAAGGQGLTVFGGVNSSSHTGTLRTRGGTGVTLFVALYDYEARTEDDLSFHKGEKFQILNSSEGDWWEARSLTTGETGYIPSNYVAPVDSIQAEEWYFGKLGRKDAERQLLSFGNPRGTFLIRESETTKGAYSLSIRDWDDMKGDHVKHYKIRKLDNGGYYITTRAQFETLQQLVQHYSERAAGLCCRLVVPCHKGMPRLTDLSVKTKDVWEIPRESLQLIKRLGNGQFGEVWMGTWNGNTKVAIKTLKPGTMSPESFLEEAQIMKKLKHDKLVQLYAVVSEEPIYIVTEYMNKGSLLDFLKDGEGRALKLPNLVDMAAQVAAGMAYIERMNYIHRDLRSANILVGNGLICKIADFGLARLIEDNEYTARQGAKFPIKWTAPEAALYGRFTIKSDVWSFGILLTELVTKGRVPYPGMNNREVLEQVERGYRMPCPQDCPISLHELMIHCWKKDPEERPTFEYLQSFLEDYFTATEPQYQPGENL

Sequence | phosphorylation enrichment
PTYENYANSTQ [SLC12A3_Y70_H69N] | 4.03
VPFARYLAMNK [HARS1_Y138] | 0.382
STEEQYRICQV [EFHC1_Y115_R118C] | 0.541
KFVVVYFREID [IL17RB_Y447_YF] | 0.436
AVDMTYDGHPV [FLNB_Y1020_V1018M] | 3.3
NGLVACKDGKL [PMM2_Y76_Y76C] | 0.416
FTDGQYWIRGR [ACSF3_Y466_K462T] | 0.422
MFVKSYTIHFS [F5_Y2153_YF] | 0.482
EGNEQYEGYCV [GRIA3_Y451_R450Q] | 0.567
VSAPEYGPKLK [TBC1D14_Y46_L41V] | 0.437
VNFQPYRKHKF [TEX37_Y28_D24N_YF] | 0.439
VKKKLYEEIDQ [CYP17A1_Y329] | 0.373
SFPREYGSQEG [RBM10_Y48_YF] | 0.506
KSVEEYANCHL [TF_Y593_P589S] | 0.458
ALHRPYGCDVE [ABL2_Y80] | 0.447
TQNAVYSAANF [DDX5_Y535_G533A_YF] | 10.3
SPYMLYQYLKQ [RPAP3_Y567_D564Y] | 4.34
CASQLCPRHKH [DCTN4_Y263_Y263C] | 0.366
TWEKPYECVQC [ZNF24_Y335_G331W] | 0.489
SVVVPNEPPEV [TP53_Y220_Y220N] | 0.539
FSNPAYFVLEG [INPPL1_Y986_N982S_YF] | 0.416
GLRYGYGVLGG [KRTAP20-2_Y15] | 0.495
QDGYSYPSRQM [LDLR_Y847] | 0.624
WHFTFYNELRV [ACTC1_Y93_H90Y_YF] | 0.413
QEGPEYWDRNT [HLA-B_Y83] | 0.763
VQVAFYTVMMN [SPATA17_Y84_M86V_YF] | 0.567
YCVDCYKNFVA [FHL1_Y213] | 0.532
FCRHNYGVGES [HLA-DRB1_Y112_V115G_YF] | 0.498
KRLYAYKMLMA [TMC2_Y209_Q205R] | 0.327

Each sequence was assayed against EPHB1 (UniProt P54762) in the same assay as above.
Chain of EPHB1 (P54762 whole entry, looked up): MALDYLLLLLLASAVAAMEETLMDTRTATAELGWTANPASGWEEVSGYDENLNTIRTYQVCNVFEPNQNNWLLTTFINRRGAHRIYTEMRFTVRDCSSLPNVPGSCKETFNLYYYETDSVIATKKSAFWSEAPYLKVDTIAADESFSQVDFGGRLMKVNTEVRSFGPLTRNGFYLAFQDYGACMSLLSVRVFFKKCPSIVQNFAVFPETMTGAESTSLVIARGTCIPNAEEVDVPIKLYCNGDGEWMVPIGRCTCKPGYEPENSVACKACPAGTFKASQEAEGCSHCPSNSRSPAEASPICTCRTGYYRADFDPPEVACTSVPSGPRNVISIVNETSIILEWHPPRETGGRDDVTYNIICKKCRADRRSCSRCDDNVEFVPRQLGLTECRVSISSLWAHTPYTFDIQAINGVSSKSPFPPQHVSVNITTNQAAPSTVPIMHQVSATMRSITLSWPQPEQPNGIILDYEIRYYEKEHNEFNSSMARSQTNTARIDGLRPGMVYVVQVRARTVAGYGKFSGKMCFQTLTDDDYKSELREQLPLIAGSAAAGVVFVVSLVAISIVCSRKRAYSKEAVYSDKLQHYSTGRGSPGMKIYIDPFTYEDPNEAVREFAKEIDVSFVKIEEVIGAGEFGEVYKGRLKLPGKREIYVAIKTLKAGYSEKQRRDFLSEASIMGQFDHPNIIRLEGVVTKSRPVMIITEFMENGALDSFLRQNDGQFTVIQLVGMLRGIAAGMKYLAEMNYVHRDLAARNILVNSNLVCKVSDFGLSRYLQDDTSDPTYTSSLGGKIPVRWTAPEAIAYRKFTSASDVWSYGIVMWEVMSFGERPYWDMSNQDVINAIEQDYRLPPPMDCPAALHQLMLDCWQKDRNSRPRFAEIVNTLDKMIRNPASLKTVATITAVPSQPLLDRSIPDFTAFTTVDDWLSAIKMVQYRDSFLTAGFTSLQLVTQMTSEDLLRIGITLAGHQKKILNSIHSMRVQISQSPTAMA

Sequence | phosphorylation enrichment
PTYENYANSTQ [SLC12A3_Y70_H69N] | 4.39
VPFARYLAMNK [HARS1_Y138] | 0.379
STEEQYRICQV [EFHC1_Y115_R118C] | 0.71
KFVVVYFREID [IL17RB_Y447_YF] | 0.508
AVDMTYDGHPV [FLNB_Y1020_V1018M] | 1.67
NGLVACKDGKL [PMM2_Y76_Y76C] | 0.397
FTDGQYWIRGR [ACSF3_Y466_K462T] | 0.509
MFVKSYTIHFS [F5_Y2153_YF] | 0.565
EGNEQYEGYCV [GRIA3_Y451_R450Q] | 0.556
VSAPEYGPKLK [TBC1D14_Y46_L41V] | 0.452
VNFQPYRKHKF [TEX37_Y28_D24N_YF] | 0.34
VKKKLYEEIDQ [CYP17A1_Y329] | 0.535
SFPREYGSQEG [RBM10_Y48_YF] | 0.392
KSVEEYANCHL [TF_Y593_P589S] | 0.482
ALHRPYGCDVE [ABL2_Y80] | 0.59
TQNAVYSAANF [DDX5_Y535_G533A_YF] | 3.15
SPYMLYQYLKQ [RPAP3_Y567_D564Y] | 14.1
CASQLCPRHKH [DCTN4_Y263_Y263C] | 0.305
TWEKPYECVQC [ZNF24_Y335_G331W] | 0.521
SVVVPNEPPEV [TP53_Y220_Y220N] | 0.645
FSNPAYFVLEG [INPPL1_Y986_N982S_YF] | 0.642
GLRYGYGVLGG [KRTAP20-2_Y15] | 0.407
QDGYSYPSRQM [LDLR_Y847] | 0.49
WHFTFYNELRV [ACTC1_Y93_H90Y_YF] | 0.784
QEGPEYWDRNT [HLA-B_Y83] | 0.9
VQVAFYTVMMN [SPATA17_Y84_M86V_YF] | 1.17
YCVDCYKNFVA [FHL1_Y213] | 0.564
FCRHNYGVGES [HLA-DRB1_Y112_V115G_YF] | 0.421
KRLYAYKMLMA [TMC2_Y209_Q205R] | 0.492

What follows are sequences tested against EPHB2 (UniProt P29323) in the same assay as above.
Chain of EPHB2 (P29323 whole entry, looked up): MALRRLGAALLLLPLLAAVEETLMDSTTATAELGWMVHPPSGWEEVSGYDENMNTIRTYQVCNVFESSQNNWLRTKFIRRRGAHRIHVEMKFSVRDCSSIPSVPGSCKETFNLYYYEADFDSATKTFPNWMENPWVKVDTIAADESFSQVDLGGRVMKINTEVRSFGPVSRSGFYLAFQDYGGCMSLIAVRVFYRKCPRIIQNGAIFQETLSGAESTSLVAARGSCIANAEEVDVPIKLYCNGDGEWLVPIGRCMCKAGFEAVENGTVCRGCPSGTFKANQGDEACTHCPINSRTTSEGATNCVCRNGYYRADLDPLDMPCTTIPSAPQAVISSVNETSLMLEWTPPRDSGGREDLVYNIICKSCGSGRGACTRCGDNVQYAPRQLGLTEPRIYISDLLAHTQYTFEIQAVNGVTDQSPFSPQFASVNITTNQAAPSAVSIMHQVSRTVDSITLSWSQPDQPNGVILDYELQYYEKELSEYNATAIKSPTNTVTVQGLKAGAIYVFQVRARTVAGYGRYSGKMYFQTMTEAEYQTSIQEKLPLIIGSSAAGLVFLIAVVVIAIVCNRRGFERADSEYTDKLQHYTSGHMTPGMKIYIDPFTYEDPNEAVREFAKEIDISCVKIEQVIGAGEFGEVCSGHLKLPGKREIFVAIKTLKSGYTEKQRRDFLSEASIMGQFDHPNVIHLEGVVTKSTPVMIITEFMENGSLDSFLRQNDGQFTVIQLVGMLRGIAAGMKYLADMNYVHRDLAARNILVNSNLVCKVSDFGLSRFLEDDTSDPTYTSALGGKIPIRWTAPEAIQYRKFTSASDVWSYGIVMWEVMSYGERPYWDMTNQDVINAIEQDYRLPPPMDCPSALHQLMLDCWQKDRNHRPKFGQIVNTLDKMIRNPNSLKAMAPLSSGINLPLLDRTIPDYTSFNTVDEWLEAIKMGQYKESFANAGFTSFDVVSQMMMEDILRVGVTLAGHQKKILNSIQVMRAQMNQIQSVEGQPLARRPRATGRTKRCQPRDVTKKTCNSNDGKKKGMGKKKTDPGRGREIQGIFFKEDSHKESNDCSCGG

Sequence | phosphorylation enrichment
PTYENYANSTQ [SLC12A3_Y70_H69N] | 3.36
VPFARYLAMNK [HARS1_Y138] | 0.43
STEEQYRICQV [EFHC1_Y115_R118C] | 0.629
KFVVVYFREID [IL17RB_Y447_YF] | 0.523
AVDMTYDGHPV [FLNB_Y1020_V1018M] | 4.79
NGLVACKDGKL [PMM2_Y76_Y76C] | 0.524
FTDGQYWIRGR [ACSF3_Y466_K462T] | 0.463
MFVKSYTIHFS [F5_Y2153_YF] | 0.579
EGNEQYEGYCV [GRIA3_Y451_R450Q] | 0.592
VSAPEYGPKLK [TBC1D14_Y46_L41V] | 0.391
VNFQPYRKHKF [TEX37_Y28_D24N_YF] | 0.386
VKKKLYEEIDQ [CYP17A1_Y329] | 0.541
SFPREYGSQEG [RBM10_Y48_YF] | 0.447
KSVEEYANCHL [TF_Y593_P589S] | 0.429
ALHRPYGCDVE [ABL2_Y80] | 0.456
TQNAVYSAANF [DDX5_Y535_G533A_YF] | 4.24
SPYMLYQYLKQ [RPAP3_Y567_D564Y] | 11.4
CASQLCPRHKH [DCTN4_Y263_Y263C] | 0.393
TWEKPYECVQC [ZNF24_Y335_G331W] | 0.601
SVVVPNEPPEV [TP53_Y220_Y220N] | 0.665
FSNPAYFVLEG [INPPL1_Y986_N982S_YF] | 0.548
GLRYGYGVLGG [KRTAP20-2_Y15] | 0.398
QDGYSYPSRQM [LDLR_Y847] | 0.576
WHFTFYNELRV [ACTC1_Y93_H90Y_YF] | 0.671
QEGPEYWDRNT [HLA-B_Y83] | 0.741
VQVAFYTVMMN [SPATA17_Y84_M86V_YF] | 0.737
YCVDCYKNFVA [FHL1_Y213] | 0.514
FCRHNYGVGES [HLA-DRB1_Y112_V115G_YF] | 0.527
KRLYAYKMLMA [TMC2_Y209_Q205R] | 0.493

Each sequence was assayed against Jak2 (UniProt O60674) in the same assay as above.
Chain of Jak2 (O60674 whole entry, looked up): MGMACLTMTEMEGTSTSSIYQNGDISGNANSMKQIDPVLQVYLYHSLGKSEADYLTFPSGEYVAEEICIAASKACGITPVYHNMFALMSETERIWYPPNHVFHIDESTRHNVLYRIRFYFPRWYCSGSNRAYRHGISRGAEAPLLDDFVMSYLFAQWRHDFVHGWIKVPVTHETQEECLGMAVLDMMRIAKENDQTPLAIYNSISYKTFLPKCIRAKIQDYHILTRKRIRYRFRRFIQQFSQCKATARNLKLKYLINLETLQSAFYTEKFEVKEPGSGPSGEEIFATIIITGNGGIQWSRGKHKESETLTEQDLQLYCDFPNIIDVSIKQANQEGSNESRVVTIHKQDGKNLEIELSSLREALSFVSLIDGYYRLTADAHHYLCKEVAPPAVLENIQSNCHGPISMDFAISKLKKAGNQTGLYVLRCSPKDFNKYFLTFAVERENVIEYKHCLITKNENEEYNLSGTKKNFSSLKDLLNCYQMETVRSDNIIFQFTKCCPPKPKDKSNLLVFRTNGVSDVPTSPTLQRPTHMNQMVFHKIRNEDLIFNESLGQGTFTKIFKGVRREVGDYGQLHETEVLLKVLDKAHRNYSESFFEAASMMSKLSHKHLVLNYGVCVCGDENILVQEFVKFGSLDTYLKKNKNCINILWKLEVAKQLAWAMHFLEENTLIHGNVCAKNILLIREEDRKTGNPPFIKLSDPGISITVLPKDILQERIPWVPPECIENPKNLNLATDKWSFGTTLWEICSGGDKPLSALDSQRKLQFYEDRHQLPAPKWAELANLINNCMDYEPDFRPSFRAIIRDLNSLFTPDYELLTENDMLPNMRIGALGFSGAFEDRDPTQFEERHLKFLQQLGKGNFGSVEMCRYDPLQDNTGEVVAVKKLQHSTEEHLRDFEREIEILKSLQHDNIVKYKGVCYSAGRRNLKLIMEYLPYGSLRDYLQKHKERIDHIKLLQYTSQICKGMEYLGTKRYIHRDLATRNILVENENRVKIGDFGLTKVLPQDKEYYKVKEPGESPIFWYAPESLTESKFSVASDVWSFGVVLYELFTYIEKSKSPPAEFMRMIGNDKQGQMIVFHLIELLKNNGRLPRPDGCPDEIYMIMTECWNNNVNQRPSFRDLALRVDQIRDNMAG

Sequence | phosphorylation enrichment
PTYENYANSTQ [SLC12A3_Y70_H69N] | 0.518
VPFARYLAMNK [HARS1_Y138] | 0.361
STEEQYRICQV [EFHC1_Y115_R118C] | 1.08
KFVVVYFREID [IL17RB_Y447_YF] | 1.17
AVDMTYDGHPV [FLNB_Y1020_V1018M] | 0.765
NGLVACKDGKL [PMM2_Y76_Y76C] | 0.435
FTDGQYWIRGR [ACSF3_Y466_K462T] | 0.818
MFVKSYTIHFS [F5_Y2153_YF] | 1.05
EGNEQYEGYCV [GRIA3_Y451_R450Q] | 0.942
VSAPEYGPKLK [TBC1D14_Y46_L41V] | 0.556
VNFQPYRKHKF [TEX37_Y28_D24N_YF] | 0.408
VKKKLYEEIDQ [CYP17A1_Y329] | 0.764
SFPREYGSQEG [RBM10_Y48_YF] | 0.532
KSVEEYANCHL [TF_Y593_P589S] | 0.688
ALHRPYGCDVE [ABL2_Y80] | 0.541
TQNAVYSAANF [DDX5_Y535_G533A_YF] | 0.526
SPYMLYQYLKQ [RPAP3_Y567_D564Y] | 2.23
CASQLCPRHKH [DCTN4_Y263_Y263C] | 0.495
TWEKPYECVQC [ZNF24_Y335_G331W] | 0.84
SVVVPNEPPEV [TP53_Y220_Y220N] | 1.05
FSNPAYFVLEG [INPPL1_Y986_N982S_YF] | 3.86
GLRYGYGVLGG [KRTAP20-2_Y15] | 0.586
QDGYSYPSRQM [LDLR_Y847] | 1.17
WHFTFYNELRV [ACTC1_Y93_H90Y_YF] | 1.2
QEGPEYWDRNT [HLA-B_Y83] | 0.806
VQVAFYTVMMN [SPATA17_Y84_M86V_YF] | 1.36
YCVDCYKNFVA [FHL1_Y213] | 0.726
FCRHNYGVGES [HLA-DRB1_Y112_V115G_YF] | 0.62
KRLYAYKMLMA [TMC2_Y209_Q205R] | 0.675
